Data on 167 variants can be found in the RNAGym collection of RNA variant scans (doi:10.7554/elife.80360).

B1: HDV Ribozyme (parent)
chain: GGCCGGCAUGGUCCCAGCCUCCUCGCUGGCGCCGGCUGGGCAACAUUCCGAGGGGACCGUCCCCUCGGUAAUGGCGAAUGGGACCCA

In the data set the parent is B1. Description: self-cleavage, relative activity (ratio to wild type); higher = more cleavage; co-transcriptional.
For the variant C4G C44G, the self-cleavage is 0.0449.

Consider C4G C48A, for which the self-cleavage is 0.59.

Turning to C4G C48G, the self-cleavage turned out to be 0.485.

For C4G C48U, the self-cleavage was 0.306.

For C4U U47C, the self-cleavage was 0.554.

Turning to C4U U47G, the self-cleavage turned out to be 0.88.

With C4G C36A, the self-cleavage amounted to 0.0241.

As for C4G U9G, the self-cleavage stood at 0.293.

With C4G U9C, the self-cleavage came out at 0.19.

For the variant C4G C30A, the self-cleavage was determined as 0.0601.

Consider C4U C18G, for which the self-cleavage was 0.095.

As to C4U C18A, the self-cleavage is 0.

For C4U G82C, the self-cleavage turned out to be 0.0875.

As for C4U G82U, the self-cleavage came to 0.119.

For C4U G82A, the self-cleavage was found to be 0.0959.

For the variant C4U C22G, the self-cleavage was found to be 0.111.

On to G5A C36U, for which the self-cleavage was determined as 0.18.

Consider G5A C36A, for which the self-cleavage worked out at 0.0627.

C4U G54C: the self-cleavage came out at 0.795.

On to C4U G40C, for which the self-cleavage came to 0.128.

With C4U G40A, the self-cleavage is 0.604.

As to C4U C75G, the self-cleavage was 0.122.

Consider C4U C33U, for which the self-cleavage was 0.612.

As to C4U C33G, the self-cleavage was found to be 0.

Take C4G A70G: the self-cleavage came to 0.59.

Turning to G5A A77G, the self-cleavage came to 0.

Consider C4G U20A, for which the self-cleavage was 0.0536.

Take C4G U20G: the self-cleavage was found to be 0.

Take G5A C13U: the self-cleavage was determined as 0.107.

Take G5A C13G: the self-cleavage stood at 0.

In the case of C4G U79G, the self-cleavage stood at 0.

Turning to C4G U79A, the self-cleavage worked out at 0.0536.

With C4G U79C, the self-cleavage amounted to 0.13.

For C4U A56C, the self-cleavage turned out to be 0.522.

Turning to C4G U37A, the self-cleavage came to 0.0462.

For C4G U37G, the self-cleavage stood at 0.0489.

In the case of C4U C19U, the self-cleavage came to 0.0665.

Regarding C4U C19G, the self-cleavage is 0.0268.

Regarding C4G C19G, the self-cleavage worked out at 0.086.

Consider C4G A42G, for which the self-cleavage was 0.

As to C4G U69A, the self-cleavage was 0.192.

With C4G G5A, the self-cleavage came to 0.0519.

On to C4G G5U, for which the self-cleavage amounted to 0.0545.

As to G5A C32G, the self-cleavage came out at 0.248.

For the variant G5A C32U, the self-cleavage worked out at 0.198.

For the variant G5A C32A, the self-cleavage amounted to 0.

For the variant C4A U79A, the self-cleavage came out at 0.0739.

C4G G11C: the self-cleavage worked out at 0.

As to C4G G11A, the self-cleavage came out at 0.104.

Consider C4G U65A, for which the self-cleavage turned out to be 0.525.

In the case of C4G G31U, the self-cleavage stood at 0.0282.

For the variant C4G G31A, the self-cleavage came to 0.0639.

In the case of C4G C14A, the self-cleavage worked out at 0.0852.

On to C4G C14G, for which the self-cleavage is 0.

On to C4G C14U, for which the self-cleavage came out at 0.462.

For C4U C85G, the self-cleavage was found to be 0.935.

As to C4U C85U, the self-cleavage was 0.665.

Take C4G C13U: the self-cleavage came to 0.369.

Turning to C4G C13G, the self-cleavage was 0.

In the case of C4G C13A, the self-cleavage was found to be 0.0277.

For C4U U79A, the self-cleavage is 0.755.

For the variant G5A A45U, the self-cleavage was 0.

Turning to G5A A45C, the self-cleavage worked out at 0.0462.

Turning to C4U U12G, the self-cleavage worked out at 0.465.

Take C4A U37G: the self-cleavage worked out at 0.

As for C4G C61U, the self-cleavage amounted to 0.475.

Take C4U C44G: the self-cleavage is 0.214.

Take C4U G11A: the self-cleavage stood at 0.225.

As for C4U G11C, the self-cleavage was 0.

Turning to C4U C86A, the self-cleavage is 0.875.

C4U C86G: the self-cleavage was determined as 0.831.

For the variant G5A A83G, the self-cleavage is 0.297.

Turning to C4U C13U, the self-cleavage was 0.516.

As for C4U C15A, the self-cleavage was found to be 0.302.

With C4U C15U, the self-cleavage was found to be 0.731.

In the case of C4U C63U, the self-cleavage is 0.682.

With C4U C63G, the self-cleavage came out at 0.396.

Consider C4U U69A, for which the self-cleavage was determined as 0.623.

Turning to C4G C66U, the self-cleavage turned out to be 0.445.

In the case of C4G C66A, the self-cleavage is 0.369.

With G5A C19A, the self-cleavage came to 0.0723.

With G5A C19U, the self-cleavage was 0.

Regarding C4G G39U, the self-cleavage worked out at 0.0346.

Consider C4G A83G, for which the self-cleavage turned out to be 0.192.

Take C4G A83U: the self-cleavage was 0.136.

Take G5A A70C: the self-cleavage was determined as 0.166.

As to G5A A70G, the self-cleavage is 0.0504.

As to C4G C49U, the self-cleavage came out at 0.612.

For C4G C49G, the self-cleavage amounted to 0.504.

Regarding C4G C57G, the self-cleavage is 0.489.

Turning to C4G C57A, the self-cleavage was found to be 0.374.

C4A G55A: the self-cleavage worked out at 0.3.

As to C4A G55C, the self-cleavage amounted to 0.31.

For C4G C18U, the self-cleavage came out at 0.0282.

C4U G50A: the self-cleavage worked out at 0.686.

C4U G50C: the self-cleavage stood at 0.917.

Take C4U U20A: the self-cleavage stood at 0.0554.

As for C4U U20C, the self-cleavage turned out to be 0.0437.

As for C4U U20G, the self-cleavage was 0.

C4A U65G: the self-cleavage amounted to 0.26.

For C4A U65C, the self-cleavage was 0.567.

Turning to C4A G76A, the self-cleavage was determined as 0.208.

As for C4A G76U, the self-cleavage was found to be 0.554.

Consider C4A G76C, for which the self-cleavage was determined as 0.253.

In the case of C4U A51C, the self-cleavage stood at 0.723.

C4G G76C: the self-cleavage is 0.494.

With C4G G76A, the self-cleavage worked out at 0.343.

Turning to C4U A87C, the self-cleavage came to 0.708.

With C4A G68C, the self-cleavage worked out at 0.115.

For C4A G68A, the self-cleavage amounted to 0.196.

As to C4G C84U, the self-cleavage came to 0.249.

In the case of C4G C84G, the self-cleavage stood at 0.

With C4U C36A, the self-cleavage stood at 0.

With C4U C36U, the self-cleavage came to 0.272.

For C4U C36G, the self-cleavage came to 0.0707.

Consider C4U G31A, for which the self-cleavage is 0.163.

For C4U G31C, the self-cleavage was determined as 0.0339.

Turning to C4U G31U, the self-cleavage amounted to 0.0346.

As to C4G G82U, the self-cleavage is 0.0421.

C4A U20C: the self-cleavage is 0.214.

Take C4U A8C: the self-cleavage came to 0.443.

Consider C4G G74U, for which the self-cleavage was determined as 0.111.

Turning to C4G G74C, the self-cleavage amounted to 0.0386.

Regarding G5A C24U, the self-cleavage was 0.

On to C4U C48G, for which the self-cleavage was found to be 0.554.

On to C4U C48A, for which the self-cleavage stood at 0.706.

Consider C4G A87C, for which the self-cleavage worked out at 0.373.

Consider C4G A87G, for which the self-cleavage is 0.0715.

For the variant C4U G67C, the self-cleavage worked out at 0.739.

Take C4U G67A: the self-cleavage was 0.554.

For C4U G67U, the self-cleavage turned out to be 0.855.

Regarding G5A C57U, the self-cleavage was determined as 0.106.

Take G5A C57A: the self-cleavage is 0.0449.

In the case of G5A C57G, the self-cleavage is 0.138.

With C4A U9C, the self-cleavage stood at 0.268.

Take C4G C22A: the self-cleavage turned out to be 0.142.

For the variant C4G C22U, the self-cleavage came to 0.0449.

G5A C33A: the self-cleavage is 0.219.

Regarding G5A C33U, the self-cleavage was determined as 0.831.

Take C4G A71G: the self-cleavage worked out at 0.277.

With C4G A71C, the self-cleavage was 0.192.

On to C4U U27C, for which the self-cleavage amounted to 0.166.

C4G U27C: the self-cleavage stood at 0.0437.

On to C4G U27G, for which the self-cleavage was 0.268.

Take C4G U27A: the self-cleavage amounted to 0.222.

C4U C14A: the self-cleavage worked out at 0.519.

For C4U C14U, the self-cleavage was found to be 1.04.

C4G A51U: the self-cleavage amounted to 0.284.

For C4G A51C, the self-cleavage worked out at 0.458.

C4G A77G: the self-cleavage came to 0.172.

As to C4U G29U, the self-cleavage stood at 0.0302.

For the variant C4G A78G, the self-cleavage was 0.0923.

For C4U C49A, the self-cleavage amounted to 0.332.

As for C4U C49U, the self-cleavage came to 0.789.

In the case of C4U C49G, the self-cleavage is 0.604.

With C4U U9A, the self-cleavage was determined as 0.739.

Turning to C4U U9G, the self-cleavage is 0.782.

Consider C4U U9C, for which the self-cleavage worked out at 0.727.

Take C4G G81C: the self-cleavage turned out to be 0.0767.

As to C4G G81U, the self-cleavage is 0.0554.

Consider C4U A16C, for which the self-cleavage stood at 0.434.

C4U G53C: the self-cleavage is 0.782.

Take C4U G53A: the self-cleavage came to 0.665.

Turning to C4U G35U, the self-cleavage came to 0.162.

For C4G U12C, the self-cleavage is 0.0665.

Regarding C4G U12G, the self-cleavage was 0.18.

On to C4U U60C, for which the self-cleavage came to 0.872.
